The target in one test is HLA-B*18:01. Put plainly: IEDB peptide-MHC binding, purified MHC/competitive/fluorescence; filed as Kd, often an IC50 or EC50 that approximates it; ≥ and ≤ were set here for values at or beyond the usual limits of such assays. Conditions: source organism: Brucella abortus S19.
The target of test [1] is HLA-A*02:01. The description is as above. The settings on record: source organism: Brucella abortus S19.
The target in a further test is HLA-A*26:02. The description is as above. The settings on record: source organism: Brucella abortus S19.
The target in the next test is HLA-A*02:06. The test is described as above. Conditions: source organism: Brucella abortus S19.
Test [2] concerns the target HLA-A*11:01. The description is as above. The settings on record: source organism: Brucella abortus S19.
The next test has as its target HLA-A*02:03. The test is described as above. The settings on record: source organism: Brucella abortus S19.
Test [3] has as its target HLA-B*15:01. The test is described as above. The settings on record: source organism: Brucella abortus S19.
The next test has as its target HLA-A*68:02. The description is as above. Conditions: source organism: Brucella abortus S19.
The next test concerns the target HLA-B*15:17. The test is described as above. Conditions: source organism: Brucella abortus S19.
The next test concerns the target HLA-B*15:09. In words: IEDB peptide-MHC binding, purified MHC/direct/fluorescence; filed as Kd, often an IC50 or EC50 that approximates it; ≥ and ≤ were set here for values at or beyond the usual limits of such assays. The settings on record: source organism: Brucella suis 1330.
The target of a further test is HLA-B*08:03. The test is described as above. Conditions: source organism: Brucella suis 1330.
Another test has as its target HLA-B*58:01. Described as above.
For the next test, the target named is HLA-A*01:01. Described as above.
Another test deals with HLA-A*26:01. The test is described as above.
For the next test, the target named is HLA-B*39:01. The test is described as above. Conditions: source organism: Brucella suis 1330.
The target of another test is HLA-A*23:01. Described as above. The settings on record: source organism: Brucella abortus 2308.
In the next test the target is HLA-C*15:02. Described as above. Conditions: source organism: Brucella abortus S19.
For the next test, the target named is HLA-A*31:01. The test is described as above.
The target in another test is HLA-A*69:01. The test is described as above.
Another test has as its target HLA-B*08:01. Described as above.
For test [4], the target named is HLA-C*06:02. The description is as above. Conditions: source organism: Brucella abortus S19.
The next test addresses HLA-B*07:02. The description is as above.
A further test deals with HLA-C*14:02. Described as above. The settings on record: source organism: Brucella abortus S19.
Another test has as its target HLA-B*57:01. Described as above. The settings on record: source organism: Brucella abortus 2308.
In a further test the target is HLA-A*24:03. Described as above.
The next test deals with HLA-C*04:01. Described as above. The settings on record: source organism: Nostoc punctiforme PCC 73102.
For another test, the target named is HLA-A*03:01. Described as above. The settings on record: source organism: Giardia lamblia ATCC 50803.
The target of the next test is HLA-A*30:01. The description is as above. Conditions: source organism: Giardia lamblia ATCC 50803.
The next test deals with HLA-B*73:01. The description is as above. The settings on record: source organism: Giardia lamblia ATCC 50803.
In the next test the target is HLA-B*40:01. The description is as above. The settings on record: source organism: Giardia lamblia ATCC 50803.
The target in test [5] is HLA-A*02:01. Described as above. Conditions: source organism: Giardia lamblia ATCC 50803.
A further test deals with HLA-B*27:05. The test is described as above. The settings on record: source organism: Giardia lamblia ATCC 50803.
Test [6] deals with HLA-A*11:01. Described as above. Conditions: source organism: Giardia lamblia ATCC 50803.
The target in a further test is HLA-B*44:02. Described as above. The settings on record: source organism: Giardia lamblia ATCC 50803.
Test [7] deals with HLA-B*15:01. The description is as above. Conditions: source organism: Giardia lamblia ATCC 50803.
For the next test, the target named is HLA-B*15:42. In words: IEDB peptide-MHC binding, purified MHC/competitive/fluorescence; filed as Kd, often an IC50 or EC50 that approximates it; ≥ and ≤ were set here for values at or beyond the usual limits of such assays. The settings on record: source organism: Homo sapiens.
Another test concerns the target HLA-B*40:13. The description is as above. The settings on record: source organism: Homo sapiens.
Another test concerns the target HLA-B*45:06. The description is as above. The settings on record: source organism: Homo sapiens.
A further test concerns the target HLA-A*32:15. Described as above. Conditions: source organism: Homo sapiens.
The target in the next test is HLA-B*83:01. Described as above. The settings on record: source organism: Homo sapiens.
Test [8] addresses HLA-C*06:02. The description is as above. Conditions: source organism: Homo sapiens.
Another test has as its target HLA-A*68:23. The test is described as above. Conditions: source organism: Homo sapiens.
The target in the next test is HLA-A*32:07. Described as above. The settings on record: source organism: Homo sapiens.
Another test deals with HLA-C*07:02. Put plainly: IEDB peptide-MHC binding, purified MHC/direct/fluorescence; filed as Kd, often an IC50 or EC50 that approximates it; ≥ and ≤ were set here for values at or beyond the usual limits of such assays. The settings on record: source organism: Homo sapiens.
The next test concerns the target HLA-C*05:01. The test is described as above. The settings on record: source organism: Homo sapiens.
The target of another test is HLA-B*51:01. The test is described as above. Conditions: source organism: Homo sapiens.
The mark [9] stands for this setting: source organism: Brucella abortus 2308.
The mark [10] stands for this setting: source organism: Brucella suis 1330.
[11] abbreviates: source organism: Giardia lamblia ATCC 50803.

Broadly, the Kd is a measure of binding affinity in units of concentration. Read a low Kd as a tighter complex.

Bounds are passed on as bounds.

As to YWMGGTTYF, the Kd was at least 20 µM with HLA-B*18:01; 1.12 µM with HLA-A*02:01 [1]; at least 20 µM with HLA-A*26:02; 0.797 µM with HLA-A*02:06; 2.07 µM in the test with HLA-A*11:01 [2]; 4.23 µM with HLA-A*02:03. Besides, the Kd with HLA-B*15:01 [3] was 1.04 µM; with HLA-A*68:02, at least 20 µM; with HLA-B*15:17, 1.02 µM; in the test with HLA-B*15:09, at least 20 µM; with HLA-B*08:03, at least 20 µM; with HLA-B*58:01 (setting [9]), at least 20 µM. For the same sequence, the Kd with HLA-A*01:01 (setting [9]) is at least 20 µM; with HLA-A*26:01 (setting [10]), at least 20 µM; with HLA-B*39:01, at least 20 µM; in the test with HLA-A*23:01 it was 0.0535 µM; in the test with HLA-C*15:02, at least 20 µM; in the test with HLA-A*31:01 (setting [9]), at least 20 µM. Also, the Kd with HLA-A*69:01 (setting [9]) is at least 20 µM; in the test with HLA-B*08:01 (setting [10]) it was at least 20 µM; with HLA-C*06:02 [4], at least 20 µM; in the test with HLA-B*07:02 (setting [9]), at least 20 µM; with HLA-C*14:02, at most 0.001 µM; with HLA-B*57:01, at least 20 µM. The sequence also yielded a Kd in the test with HLA-A*24:03 (setting [9]) of at most 0.001 µM.
As to YWPTEGYEF, the Kd with HLA-C*04:01 is 0.222 µM; in the test with HLA-A*24:03 (source organism: Escherichia coli O157:H7) it was at most 0.001 µM.
In the case of IRNLVKRYK, the Kd with HLA-B*58:01 (setting [11]) was at least 20 µM; in the test with HLA-A*01:01 (setting [11]), at least 20 µM; in the test with HLA-A*03:01, at least 20 µM; with HLA-A*30:01, 0.0508 µM; with HLA-B*73:01, 3.5 µM; with HLA-B*40:01, at least 20 µM. The Kd is at least 20 µM with HLA-A*26:01 (setting [11]); at least 20 µM with HLA-A*02:01 [5]; 1.21 µM in the test with HLA-B*27:05; at least 20 µM in the test with HLA-A*11:01 [6]; at least 20 µM with HLA-B*44:02; at least 20 µM with HLA-A*31:01 (setting [11]). In addition, the Kd in the test with HLA-A*69:01 (setting [11]), with HLA-B*08:01 (setting [11]), with HLA-B*07:02 (setting [11]) and with HLA-B*15:01 [7] was at least 20 µM each time.
For MAMGILHTI, the Kd in the test with HLA-B*15:42 is at least 5 µM; with HLA-B*40:13, 0.213 µM; with HLA-B*45:06, at least 5 µM; with HLA-A*32:15, 0.0202 µM; with HLA-B*83:01 it was 3.6 µM; with HLA-C*06:02 [8], 1.78 µM. The Kd is 0.0065 µM with HLA-A*68:23; 0.0047 µM with HLA-A*32:07; 3.31 µM with HLA-C*07:02; at least 20 µM in the test with HLA-C*05:01; 0.168 µM with HLA-B*51:01.

For the origin of these results see the Immune Epitope Database (IEDB).
